Assay results published in article doi:10.1101/2025.07.15.665002 (bioRxiv, 2025).

B1: human cytosolic malate dehydrogenase, splice variant 3 (hMDH1V3) (enzyme, UniProt P40925-3 1-352, looked up)
chain: MGRRCSYFPKDVTVFDKDDKSEPIRVLVTGAAGQIAYSLLYSIGNGSVFGKDQPIILVLLDITPMMGVLDGVLMELQDCALPLLKDVIATDKEDVAFKDLDVAILVGSMPRREGMERKDLLKANVKIFKSQGAALDKYAKKSVKVIVVGNPANTNCLTASKSAPSIPKENFSCLTRLDHNRAKAQIALKLGVTANDVKNVIIWGNHSSTQYPDVNHAKVKLQGKEVGVYEALKDDSWLKGEFVTTVQQRGAAVIKARKLSSAMSAAKAICDHVRDIWFGTPEGEFVSMGVISDGNSYGVPDDLLYSFPVVIKNKTWKFVEGLPINDFSREKMDLTAKELTEEKESAFEFLSSA
B2: human mitochondrial malate dehydrogenase (hMDH2), wild type (enzyme, UniProt P40926-1 25-338, looked up)
chain: AKVAVLGASGGIGQPLSLLLKNSPLVSRLTLYDIAHTPGVAADLSHIETKAAVKGYLGPEQLPDCLKGCDVVVIPAGVPRKPGMTRDDLFNTNATIVATLTAACAQHCPEAMICVIANPVNSTIPITAEVFKKHGVYNPNKIFGVTTLDIVRANTFVAELKGLDPARVNVPVIGGHAGKTIIPLISQCTPKVDFPQDQLTALTGRIQEAGTEVVKAKAGAGSATLSMAYAGARFVFSLVDAMNGKEGVVECSFVKSQETECTYFSTPLLLGKKGIEKNLGIGKVSSFEEKMISDAIPELKASIKKGEDFVKTLK

Target: the molecule itself
Assay: SAXS

Row | Protein | stoichiometry N
1 | B1 | 2
2 | B2 | 2
